In patent US9145555B2, “Integrated—ligand-responsive microRNAs” (California Institute of Technology, priority 2009, dated 2015):

Legend:
[1] = system: immunopurified Drosha complex; test: In vitro Drosha cleavage assay; assay type: biochemical
Procedure: We performed in vitro Drosha cleavage assays that mimic the first step in miRNA biogenesis to examine the relationship between bulge size and Drosha processing. RNAs with varying bulge sizes in the basal segments (FIG. 1B) were transcribed in vitro, incubated with immunopurified Drosha, and resolved by PAGE (FIG. 1C). […] Such abortive processing has been previously observed in vitro and attributed to DGCR8 recognition of the terminal loop instead of the miRNA basal segments (Han et al., 2006).
Internally radiolabeled RNAs were transcribed in vitro from an annealed template containing the T7 promoter (5′-[…]-3′, where G is the first transcribed nucleotide) using the Ampliscribe T7 transcription kit (Epicentre) according to the manufacturer's instructions with [α-32P]-GTP. Following transcription and DNase treatment, the transcription product was purified through a NucAway clean-up column (Ambion) according to the manufacturer's instructions and gel-purified by PAGE.
In vitro assays were conducted as described previously (Lee
and Kim, 2007). Briefly, the Drosha complex was immunopurified from 293T cells transiently transfected with pCK-Drosha-FLAG and pCK-DGCR8-FLAG (9:1 mass ratio). […]

[2] = system: transcript encoding the green fluorescent protein (GFP) in HEK 293 cells stably expressing GFP; test: Cell culture assay for miRNA activity (GFP silencing, transient transfection, flow cytometry); assay type: cell-based, human
Excerpt: To examine the relationship between bulge size in the basal segments and gene silencing, we developed a general cell culture assay for miRNA activity (FIG. 1D). miRNAs designed to target a transcript encoding the green fluorescent protein (GFP) were inserted into the 3′ untranslated region (UTR) of a constitutively-expressed transcript encoding the fluorescent protein DsRed-Express. Plasmid DNA encoding the DsRed-Express construct was transfected into HEK 293 cells stably expressing GFP. The level of miRNA-mediated gene silencing was determined by flow cytometry analysis, where DsRed-Express levels were used to distinguish between transfected and untransfected cells. Using the cell culture assay, miRNAs with the same bulges as in the in vitro experiments were tested for silencing efficiency. […] Therefore, proper Drosha processing and gene silencing correlate with the size of the bulge in the miRNA basal segments.
293 and Flp-In-293 cells were maintained in DMEM supplemented with 10% FBS at 37° C. in a 5% CO2—humidified incubator. Transient transfections were conducted with Fugene 6 (Roche) according to the manufacturer's instructions one day after seeding. Immediately prior to transfection, the media was supplemented with the appropriate ligand at the specified concentration. Ligand concentrations were selected to maximize the regulatory response without severely compromising cell viability over the course of the transient assays. The media was replaced two days post-transfection. Three days post-transfection, the cells were trypsinized and subjected to flow cytometry analysis on a Cell Lab Quanta SC MPL (Beckman Coulter) and the resulting data was analyzed using the Flowjo software (Tree Star). Cells were initially gated for viability by electronic volume and side scatter. GFP and DsRed fluorescence of viable cells were measured through a 525 nm and […] band pass filter, respectively, after excitation with a 488 nm laser. Moderate to high DsRed levels served as a transfection control to gate between transfected and untransfected cells. Transfected cells could be distinguished from untransfected cells with this method even when four miRNAs were present in the 3′ UTR of the DsRed-Express encoding transcript (data not shown). GFP levels were calculated as the median fluorescence of the transfected population divided by that of the untransfected population (Beisel et al., 2008). This normalization approach corrected for the bias from pleiotropic effects associated with each small molecule. All ratios were normalized such that the value for DsRed-Express lacking a miRNA under the same conditions was set to 100%.

[3] = system: transcript encoding DsRed-Express; test: DsRed-Express levels, regulation in cis (transient transfection, flow cytometry); assay type: cell-based, human
Excerpt: To assess the capacity for ligand-responsive miRNAs to regulate gene expression in cis, we measured expression levels for the transcripts harboring the ligand-responsive miRNAs targeting GFP and La. DsRed-Express levels were quantified by flow cytometry under similar conditions as the trans-targeted gene silencing experiments. […] Transcript analysis confirmed that the predominant regulatory mechanism of ligand-responsive miRNAs in cis is mRNA destabilization (FIG. 10).
293 and Flp-In-293 cells were maintained in DMEM supplemented with 10% FBS at 37° C. in a 5% CO2—humidified incubator. Transient transfections were conducted with Fugene 6 (Roche) according to the manufacturer's instructions one day after seeding. Immediately prior to transfection, the media was supplemented with the appropriate ligand at the specified concentration. […] Three days post-transfection, the cells were trypsinized and subjected to flow cytometry analysis on a Cell Lab Quanta SC MPL (Beckman Coulter) and the resulting data was analyzed using the Flowjo software (Tree Star). […] GFP and DsRed fluorescence of viable cells were measured through a 525 nm and […] band pass filter, respectively, after excitation with a 488 nm laser. […] GFP levels were calculated as the median fluorescence of the transfected population divided by that of the untransfected population (Beisel et al., 2008). […]

[4] = system: targeted GFP transcript; test: Self-targeting miRNA circuit, GFP levels in stable 293-Flp-In cells (flow cytometry, time course); assay type: cell-based, human; conditions: 1.5 mM theophylline for over a week; compared to th1′
Excerpt: Ligand-responsive miRNAs can regulate genes in trans through RISC targeting and in cis through Drosha cleavage. A control system based on combining both modes of regulation into ‘self-targeting miRNAs’ may offer tighter regulation while still operating within the 3′ UTR of the transgene encoding transcript. We developed a dual-acting miRNA circuit based on the insertion of ligand-responsive miRNAs or miRNA clusters into the 3′ UTR of a targeted GFP transcript (FIG. 6A), where ligand control of Drosha cleavage is expected to impact direct destabilization of the cleaved transcript and subsequent RISC-mediated inactivation of other target transcripts. The resulting constructs were stably integrated into 293-Flp-In cells to ensure consistent expression for all constructs. […]
Stable transfection of 293-Flp-In cell lines was performed using the Flp-In recombinase system (Invitrogen) according to the manufacturer's instructions to generate isogenic stable cell lines. Integrants were selected using 200 μg/ml hygromycin B (Invitrogen), whereas stable cell lines were maintained in 50 μg/ml hygromycin B. The procedure described above for the fluorescence expression analysis of transiently transfected cell populations was used to analyze the stable cell lines with notable exceptions. […]

B1: th1: SEQ ID NO. 23; GFP-targeting miRNA with a theophylline aptamer in the basal segments (nucleic acid)
chain: TCTAGAACGGGTCCTGATACCAGCGTGAGCGAGCACAAGCTGGAGTACAACTATAGTGAAGCCACAGATGTATAGTTGTACTCCAGCTTGTGCCCGCCTACGCCCTTGGCAGCAGGGCCC
modifications: expressed or natural sequence
notes: 23; GFP-targeting miRNA with a theophylline aptamer in the basal segments
[1]; in vitro transcribed miRNA, PAGE
  size of primary products of Drosha processing: ~61 nts
[1]; presence or absence of 5 mM theophylline
  effect of theophylline on Drosha processing: theophylline inhibited proper processing
[2]; single copy, absence of ligand
  GFP silencing: silence GFP with comparable strength
[2]; transient transfection with varying theophylline concentrations
  response of GFP levels to theophylline: theophylline dose-dependent increase in GFP expression levels
[2]; two copies, shortest spacer (2 nt), 5 mM theophylline
  GFP silencing and theophylline response of two miRNA copies, adjacent placement: compromised both silencing and the response to theophylline
[2]; two copies, spacer up to 112 nt, 5 mM theophylline, versus single copy
  GFP silencing and theophylline response of two miRNA copies, increased spacer length: restored and even exceeded the silencing activity and theophylline-dependence from a single copy
[2]; up to four copies separated by 112 nt spacer
  GFP silencing versus miRNA copy number: GFP silencing increased with each additional copy
[2]; up to four copies, 112 nt spacer, 5 mM theophylline
  dynamic range (ratio of GFP levels in the presence or absence of theophylline) versus copy number: increased silencing and the dynamic range
[3]; 5 mM theophylline
  ligand regulation of DsRed-Express in cis: two copies were sufficient to introduce ligand regulation
[3]; one to four copies, transient transfection
  DsRed silencing in cis versus copy number: DsRed silencing increased with increasing copy number
[4]
  GFP silencing and dynamic range of self-targeting versus non-targeting miRNAs: improved both GFP silencing and the dynamic range
